Test results taken from patent publication US10941182 (Amgen, dated 2021).
Starred links: 1 amine or outer side, 2 acyl side, 3 side chain; linkers in the order of their positions; H or OH if unused. Non-standard residues stand in square brackets, D forms with d. *: point of attachment. dBip = N[C@H](Cc1ccc(-c2ccccc2)cc1)C(=O)O; Oic = O=C(O)[C@@H]1C[C@@H]2CCCC[C@@H]2N1; dPhe(4-Cl) = N[C@H](Cc1ccc(Cl)cc1)C(=O)O; Phe(4-I) = N[C@@H](Cc1ccc(I)cc1)C(=O)O; γGlu = O=C(O)[C@H](CCC(=O)[*:2])N[*:1]; d1Nal = N[C@H](Cc1cccc2ccccc12)C(=O)O; Tridecanoyl = CCCCCCCCCCCCC(=O)*; hArg = N=C(N)NCCCC[C@H](N)C(=O)O; NMeL = CN[C@@H](CC(C)C)C(=O)O; Tle = CC(C)(C)[C@H](N)C(=O)O; AEEA = NCCOCCOCC(=O)O; BLeu = β-leucine; βAla = NCCC(=O)O

T1: human APJ receptor (human, UniProt P35414 1-380)
T1 sequence (looked up): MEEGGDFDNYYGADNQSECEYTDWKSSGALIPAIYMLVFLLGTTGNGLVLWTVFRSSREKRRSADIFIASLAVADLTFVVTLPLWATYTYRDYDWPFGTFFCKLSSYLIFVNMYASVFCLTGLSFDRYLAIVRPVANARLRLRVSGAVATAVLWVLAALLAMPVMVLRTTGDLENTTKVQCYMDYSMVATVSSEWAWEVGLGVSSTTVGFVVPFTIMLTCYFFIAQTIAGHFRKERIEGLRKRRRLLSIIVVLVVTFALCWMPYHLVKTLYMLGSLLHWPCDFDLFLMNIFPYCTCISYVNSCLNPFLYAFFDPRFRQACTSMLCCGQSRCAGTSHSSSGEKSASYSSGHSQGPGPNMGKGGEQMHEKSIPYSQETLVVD

T2: rat APJ receptor (rat, UniProt Q9JHG3 1-377)
T2 sequence (looked up): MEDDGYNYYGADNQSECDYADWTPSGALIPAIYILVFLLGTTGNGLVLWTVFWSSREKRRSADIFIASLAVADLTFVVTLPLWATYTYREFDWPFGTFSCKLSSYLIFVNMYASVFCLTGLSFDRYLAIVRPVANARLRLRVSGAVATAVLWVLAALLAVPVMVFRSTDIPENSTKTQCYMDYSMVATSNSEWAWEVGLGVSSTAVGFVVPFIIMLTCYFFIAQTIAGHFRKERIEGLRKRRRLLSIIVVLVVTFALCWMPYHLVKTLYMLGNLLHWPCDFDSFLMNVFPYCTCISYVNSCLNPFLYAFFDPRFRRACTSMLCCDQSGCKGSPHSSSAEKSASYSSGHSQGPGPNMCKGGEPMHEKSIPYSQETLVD

B1: apelin polypeptide SEQ ID NO: 16 (peptide)
peptide: Ac-[hArg][dR]Q[hArg]P[dR][NMeL]SHKG[Oic][Phe(4-I)]P[dBip]-OH
SMILES: CC(=O)N[C@@H](CCCCNC(=N)N)C(=O)N[C@H](CCCNC(=N)N)C(=O)N[C@@H](CCC(N)=O)C(=O)N[C@@H](CCCCNC(=N)N)C(=O)N1CCC[C@H]1C(=O)N[C@H](CCCNC(=N)N)C(=O)N(C)[C@@H](CC(C)C)C(=O)N[C@@H](CO)C(=O)N[C@@H](Cc1c[nH]cn1)C(=O)N[C@@H](CCCCN)C(=O)NCC(=O)N1[C@H](C(=O)N[C@@H](Cc2ccc(I)cc2)C(=O)N2CCC[C@H]2C(=O)N[C@H](Cc2ccc(-c3ccccc3)cc2)C(=O)O)C[C@@H]2CCCC[C@@H]21
B2: apelin polypeptide SEQ ID NO: 199 (peptide)
peptide: Tridecanoyl-[γGlu][AEEA][AEEA][hArg][dQ][hArg]P[dR][NMeL]SAKG[Oic][Phe(4-I)]P[dBip]-OH
SMILES: CCCCCCCCCCCCC(=O)N[C@@H](CCC(=O)NCCOCCOCC(=O)NCCOCCOCC(=O)N[C@@H](CCCCNC(=N)N)C(=O)N[C@H](CCC(N)=O)C(=O)N[C@@H](CCCCNC(=N)N)C(=O)N1CCC[C@H]1C(=O)N[C@H](CCCNC(=N)N)C(=O)N(C)[C@@H](CC(C)C)C(=O)N[C@@H](CO)C(=O)N[C@@H](C)C(=O)N[C@@H](CCCCN)C(=O)NCC(=O)N1[C@H](C(=O)N[C@@H](Cc2ccc(I)cc2)C(=O)N2CCC[C@H]2C(=O)N[C@H](Cc2ccc(-c3ccccc3)cc2)C(=O)O)C[C@@H]2CCCC[C@@H]21)C(=O)O
B3: apelin polypeptide SEQ ID NO: 201 (peptide)
peptide: Tridecanoyl-[γGlu][AEEA][AEEA][hArg][dQ][hArg]P[dR][NMeL]S[Tle]KG[Oic][Phe(4-I)]P[dBip]-OH
SMILES: CCCCCCCCCCCCC(=O)N[C@@H](CCC(=O)NCCOCCOCC(=O)NCCOCCOCC(=O)N[C@@H](CCCCNC(=N)N)C(=O)N[C@H](CCC(N)=O)C(=O)N[C@@H](CCCCNC(=N)N)C(=O)N1CCC[C@H]1C(=O)N[C@H](CCCNC(=N)N)C(=O)N(C)[C@@H](CC(C)C)C(=O)N[C@@H](CO)C(=O)N[C@H](C(=O)N[C@@H](CCCCN)C(=O)NCC(=O)N1[C@H](C(=O)N[C@@H](Cc2ccc(I)cc2)C(=O)N2CCC[C@H]2C(=O)N[C@H](Cc2ccc(-c3ccccc3)cc2)C(=O)O)C[C@@H]2CCCC[C@@H]21)C(C)(C)C)C(=O)O
B4: apelin polypeptide SEQ ID NO: 180 (peptide)
peptide: Tridecanoyl-[γGlu][AEEA][AEEA][hArg][dQ][hArg]P[dR][BLeu]SHKG[Oic][Phe(4-I)]P[dBip]-OH
B5: apelin polypeptide SEQ ID NO: 155 (peptide)
peptide: Tridecanoyl-[γGlu][AEEA][AEEA][dR]Q[hArg]P[dR][NMeL]SHKG[Oic][Phe(4-I)]P[d1Nal]-OH
SMILES: CCCCCCCCCCCCC(=O)N[C@@H](CCC(=O)NCCOCCOCC(=O)NCCOCCOCC(=O)N[C@H](CCCNC(=N)N)C(=O)N[C@@H](CCC(N)=O)C(=O)N[C@@H](CCCCNC(=N)N)C(=O)N1CCC[C@H]1C(=O)N[C@H](CCCNC(=N)N)C(=O)N(C)[C@@H](CC(C)C)C(=O)N[C@@H](CO)C(=O)N[C@@H](Cc1c[nH]cn1)C(=O)N[C@@H](CCCCN)C(=O)NCC(=O)N1[C@H](C(=O)N[C@@H](Cc2ccc(I)cc2)C(=O)N2CCC[C@H]2C(=O)N[C@H](Cc2cccc3ccccc23)C(=O)O)C[C@@H]2CCCC[C@@H]21)C(=O)O
B6: apelin polypeptide SEQ ID NO: 174 (peptide)
peptide: Tridecanoyl-[γGlu][AEEA][AEEA][hArg][dQ][hArg]P[dR][NMeL]SHKG[Oic][Phe(4-I)][dBip]-OH
SMILES: CCCCCCCCCCCCC(=O)N[C@@H](CCC(=O)NCCOCCOCC(=O)NCCOCCOCC(=O)N[C@@H](CCCCNC(=N)N)C(=O)N[C@H](CCC(N)=O)C(=O)N[C@@H](CCCCNC(=N)N)C(=O)N1CCC[C@H]1C(=O)N[C@H](CCCNC(=N)N)C(=O)N(C)[C@@H](CC(C)C)C(=O)N[C@@H](CO)C(=O)N[C@@H](Cc1c[nH]cn1)C(=O)N[C@@H](CCCCN)C(=O)NCC(=O)N1[C@H](C(=O)N[C@@H](Cc2ccc(I)cc2)C(=O)N[C@H](Cc2ccc(-c3ccccc3)cc2)C(=O)O)C[C@@H]2CCCC[C@@H]21)C(=O)O
B7: apelin polypeptide SEQ ID NO: 153 (peptide)
peptide: Tridecanoyl-[γGlu][AEEA][AEEA][dR]Q[hArg]P[dR][NMeL]SHKG[Oic][Phe(4-I)]P[Oic]-OH
SMILES: CCCCCCCCCCCCC(=O)N[C@@H](CCC(=O)NCCOCCOCC(=O)NCCOCCOCC(=O)N[C@H](CCCNC(=N)N)C(=O)N[C@@H](CCC(N)=O)C(=O)N[C@@H](CCCCNC(=N)N)C(=O)N1CCC[C@H]1C(=O)N[C@H](CCCNC(=N)N)C(=O)N(C)[C@@H](CC(C)C)C(=O)N[C@@H](CO)C(=O)N[C@@H](Cc1c[nH]cn1)C(=O)N[C@@H](CCCCN)C(=O)NCC(=O)N1[C@H](C(=O)N[C@@H](Cc2ccc(I)cc2)C(=O)N2CCC[C@H]2C(=O)N2[C@H](C(=O)O)C[C@@H]3CCCC[C@@H]32)C[C@@H]2CCCC[C@@H]21)C(=O)O
B8: apelin polypeptide SEQ ID NO: 175 (peptide)
peptide: Tridecanoyl-[γGlu][AEEA][AEEA][hArg]Q[dR]P[dR][NMeL]SHKG[Oic][Phe(4-I)][dBip]-OH
SMILES: CCCCCCCCCCCCC(=O)N[C@@H](CCC(=O)NCCOCCOCC(=O)NCCOCCOCC(=O)N[C@@H](CCCCNC(=N)N)C(=O)N[C@@H](CCC(N)=O)C(=O)N[C@H](CCCNC(=N)N)C(=O)N1CCC[C@H]1C(=O)N[C@H](CCCNC(=N)N)C(=O)N(C)[C@@H](CC(C)C)C(=O)N[C@@H](CO)C(=O)N[C@@H](Cc1c[nH]cn1)C(=O)N[C@@H](CCCCN)C(=O)NCC(=O)N1[C@H](C(=O)N[C@@H](Cc2ccc(I)cc2)C(=O)N[C@H](Cc2ccc(-c3ccccc3)cc2)C(=O)O)C[C@@H]2CCCC[C@@H]21)C(=O)O
B9: apelin polypeptide SEQ ID NO: 173 (peptide)
peptide: Tridecanoyl-[γGlu][AEEA][AEEA][dR]Q[hArg]P[dR][NMeL]SHKG[Oic][Phe(4-I)][dBip]-OH
SMILES: CCCCCCCCCCCCC(=O)N[C@@H](CCC(=O)NCCOCCOCC(=O)NCCOCCOCC(=O)N[C@H](CCCNC(=N)N)C(=O)N[C@@H](CCC(N)=O)C(=O)N[C@@H](CCCCNC(=N)N)C(=O)N1CCC[C@H]1C(=O)N[C@H](CCCNC(=N)N)C(=O)N(C)[C@@H](CC(C)C)C(=O)N[C@@H](CO)C(=O)N[C@@H](Cc1c[nH]cn1)C(=O)N[C@@H](CCCCN)C(=O)NCC(=O)N1[C@H](C(=O)N[C@@H](Cc2ccc(I)cc2)C(=O)N[C@H](Cc2ccc(-c3ccccc3)cc2)C(=O)O)C[C@@H]2CCCC[C@@H]21)C(=O)O
B10: apelin polypeptide SEQ ID NO: 154 (peptide)
peptide: Tridecanoyl-[γGlu][AEEA][AEEA][dR]Q[hArg]P[dR][NMeL]SHKG[Oic][Phe(4-I)]P[dPhe(4-Cl)]-OH
SMILES: CCCCCCCCCCCCC(=O)N[C@@H](CCC(=O)NCCOCCOCC(=O)NCCOCCOCC(=O)N[C@H](CCCNC(=N)N)C(=O)N[C@@H](CCC(N)=O)C(=O)N[C@@H](CCCCNC(=N)N)C(=O)N1CCC[C@H]1C(=O)N[C@H](CCCNC(=N)N)C(=O)N(C)[C@@H](CC(C)C)C(=O)N[C@@H](CO)C(=O)N[C@@H](Cc1c[nH]cn1)C(=O)N[C@@H](CCCCN)C(=O)NCC(=O)N1[C@H](C(=O)N[C@@H](Cc2ccc(I)cc2)C(=O)N2CCC[C@H]2C(=O)N[C@H](Cc2ccc(Cl)cc2)C(=O)O)C[C@@H]2CCCC[C@@H]21)C(=O)O
B11: apelin polypeptide SEQ ID NO: 208 (peptide)
peptide: Tridecanoyl-[γGlu][AEEA][AEEA][hArg][dQ][hArg]P[dR][NMeL][βAla]HKG[Oic][Phe(4-I)]P[dBip]-OH
SMILES: CCCCCCCCCCCCC(=O)N[C@@H](CCC(=O)NCCOCCOCC(=O)NCCOCCOCC(=O)N[C@@H](CCCCNC(=N)N)C(=O)N[C@H](CCC(N)=O)C(=O)N[C@@H](CCCCNC(=N)N)C(=O)N1CCC[C@H]1C(=O)N[C@H](CCCNC(=N)N)C(=O)N(C)[C@@H](CC(C)C)C(=O)NCCC(=O)N[C@@H](Cc1c[nH]cn1)C(=O)N[C@@H](CCCCN)C(=O)NCC(=O)N1[C@H](C(=O)N[C@@H](Cc2ccc(I)cc2)C(=O)N2CCC[C@H]2C(=O)N[C@H](Cc2ccc(-c3ccccc3)cc2)C(=O)O)C[C@@H]2CCCC[C@@H]21)C(=O)O

Columns and labels:
human APJ receptor = target: T1, human APJ receptor; assay: cell-based or functional assay
rat APJ receptor = target: T2, rat APJ receptor; assay: cell-based or functional assay

Binder | EC50 Human APJ Receptor (human APJ receptor) | EC50 Rat APJ Receptor (rat APJ receptor)
B1 | 0.375 nM | 0.729 nM
B2 | 8.48 nM | 32.4 nM
B3 | 49.4 nM | 182 nM
B4 | 10 nM | 27.3 nM
B5 | 8.62 nM | 49.6 nM
B6 | 3.6 nM | 16.5 nM
B7 | 3.75 nM | 72 nM
B8 | 1.32 nM | 8.54 nM
B9 | 1.66 nM | 13.7 nM
B10 | 4.54 nM | 40.5 nM
B11 | 28.9 nM | 104 nM
